The record followed here is the DeepSol protein solubility set.

The data set in a line: soluble on expression in E. coli; label from the status in PepcDB or PDB records.
Regarding “MNLPKKVRLVEVGPRDGLQNEKQPIEVADKIRLVDDLSAAGLDYIEVGSFVSPKWVPQMAGSAEVFAGIRQRPGVTYAALAPNLKGFEAALESGVKEVAVFAAASEAFSQRNINCSIKDSLERFVPVLEAARQHQVRVRGYISCVLGCPYDGDVDPRQVAWVARELQQMGCYEVSLGDTIGVGTAGATRRLIEAVASEVPRERLAGHFHDTYGQALANIYASLLEGIAVFDSSVAGLGGCPYAKGATGNVASEDVLYLLNGLEIHTGVDMHALVDAGQRICAVLGKSNGSRAAKALLAKA”, the “soluble on expression in E. coli” value is reported as “soluble”.

For the sequence “GSACELPECQEDAGNKVCSLQCNNHACGWDGGDCSLNFNDPWKNCTQSLQCWKYFSDGHCDSQCNSAGCLFDGFDCQRAEGQCNPLYDQYCKDHFSDGHCDQGCNSAECEWDGLDCAEHVPERLAAGTLVVVVLMPPEQLRNSSFHFLRELSRVLHTNVVFKRDAHGQQMIFPYYGDVRGSIVYLEIDNRQCVQASSQCFQSATDVAAFLGALASLGSLNIPYKIEAVQSETVEPANSHHHHHH”, the “soluble on expression in E. coli” value is “soluble”. Regarding “MAHHHHHHMPRVQLFIDNGGYSVKALYLPASADTSNRSAATHASALTSSSTHGEAAATAATVAPAPKVLVVPNCVGAAVYAGTGIMGDQLDHLPHYHGLMVRRPVDRGFVVDGGLQARVWEHVLQHFSIESEEEVDVWLVVPFAAPKAVAQLLWLLCTRSFRFGSVTVVSSSFMSLIAYKFARGASAPSSAARKRPRSTVDTDAQESPGCSGSSATGGGMAIMVDVGFSATTVVPYVNYIPVYSSVVRLDVGGKVLTNRLKEYISFSQMNVIEDTWLINHVKEQCCVVARHPRRSLQRYAALWKGRTRDEVEAAAGALSTLRREDGGSGDGQASRSQRPGAPVAGVLTSPDVPIRYYLPTIPALLPLGVLEAELPSRLPKTSGVDAAALQHLLLCQERFLIPELLFTPADVGINQQGVAQAITEGIFQRGLLQHLTKLLRPLLLHNVCVYGGTASQPNFRDRLEAEVAAVAPQSPDCDADLDLKDSKRSSSSSRHGATEACADRTTCLSATPALPEFLLKAGGASTDLSLQPLLGAWCLLSATVDSGSNGGASQRELLRLRALVHERSGIELQHPPAGRVTVETFQHALERML”, the “soluble on expression in E. coli” value was “not soluble”. Turning to “MSLTTVMSGVTTLMRAPIGSIRESEGGRDFIRNVFEESVQIMRVLGAPVKENITEEHMKTMDKISYNMKSSMQRDMEKGSSVEGTHLQGYLLDVAKQFSIEAPLLGAVYQNLKVYEEMTLNRSAIELDEGHHHHHH”, the “soluble on expression in E. coli” value was “soluble”. Consider “MVRGIRGAITVEEDTPEAIHQATRELLLKMLEANGIQSYEELAAVIFTVTEDLTSAFPAEAARQIGMHRVPLLSAREVPVPGSLPRVIRVLALWNTDTPQDRVRHVYLREAVRLRPDLESAQ”, for which the “soluble on expression in E. coli” value is “soluble”.

Take “SLSRYLLTDSPAVCVLSGERGVGTTTVLKRILNKTKNAVPIYINCPYDGYAALLPELAQLLGLDAESSEKDILQHLRNSEQCYLIAFDNAQRLVKPKVNGLVELMKLTNLLRRARKSHRVVLSIDKSSWRFIDRARGERLLFDLVTFMP”: the “soluble on expression in E. coli” value was “not soluble”. The value for “MGSDKIHHHHHHMRIAVIGGGSSYTPELVKGLLDISEDVRIDEVIFYDIDEEKQKIVVDFVKRLVKDRFKVLISDTFEGAVVDAKYVIFQFRPGGLKGRENDEGIPLKYGLIGQETTGVGGFSAALRAFPIVEEYVDTVRKTSNATIVNFTNPSGHITEFVRNYLEYEKFIGLCNVPINFIREIAEMFSARLEDVFLKYYGLNHLSFIEKVFVKGEDVTEKVFENLKLKLSNIPDEDFPTWFYDSVRLIVNPYLRYYLMEKKMFKKISTHELRAREVMKIEKELFEKYRTAVEIPEELTKRGGSMYSTAAAHLIRDLETDEGKIHIVNTRNNGSIENLPDDYVLEIPCYVRSGRVHTLSQGKGDHFALSFIHAVKMYERLTIEAYLKRSKKLALKALLSHPLGPDVEDAKDLLEEILEANREYVKLG” was “not soluble”. Take “MGSDKIHHHHHHMGSETEYGIHAPSAPGANATMMSARVIQAYAQLTRQRAAGGAETRWDYTDEEPLHDARGWTLERNQADPSQLTDQPPVLDAEAVALAYGREELEQDGEDETGSLLMNMVLGNGARLYVDHAHPEYSSPEVTNPLDAVAWDAAGDLVALSAVRRMAADPQLPPVNLYKNNTDNKSVSYGSHENYLMPRAVPFGDIVRGLTPFFITRQIMCGAGRVGLGQDSSRPGYQISQRADFFEAEVGLETTIRRPIINTRDEPHATADKYRRLHVIIGDANLSQAANYLKFGTTAMVLSLIEAGLAPRVEVHEPVAALQAVSHDTSLTATLRLLDGRRVTALDLQWMYHEAAAKLAQDTGVGDSVDGDGHTHALLERWAATLTDLDSDRTAAASSVEWLAKLSLLEGYRQRDGLQWNDARLGLVDLQWADVRPEKGLYYRMLARGRMDRIVADETIARAMTEPPSDTRAYFRGRCVSSFSKDVVGASWDSVIFDVPGHGRLQRVPTREPLRGTEALTGGLFARHKDTGSFLAELLGQTPPPPPA”: the “soluble on expression in E. coli” value is “not soluble”. The value for “MSLRVLFCSSEIYPYAKTGGLADFSFCLIKYLKKYGVKVKGVMPYYKTLKAENLRKTDKGVTLNLNGKDYTFEVYESEDCYFLRNDELFGRDYIYGPPGWGYEDNDIRFGGFSRAVSELISTGQLEADVVHANDWQTALIPLFLKEVFKTPVKTVFTIHNLAYQGLFPKETVERVGIPPYLFHMEAVEFWGLVNFMKGGIVFSDLITTVSPTYAKEIQTQEYGYGLEGVLKKYSYKLRGILNGIDYEVWNPEKDKYIYQNYSLRNYSKKFKNKEFLSKELGIEAEKPLISFINRFTHQKGVELILNCAEEMSKLNANFVFLGTGEYENAFLDVSKIYKNFKVFAEFNEGFARKLYASSDFILMPSYFEPCGLTQMIGMRYGCVPIVRKTGGLRDTVKDISEGGYGITFEEPSKETFLCSLKRAIELYENAKKFRNSVKIVMSLDFSCDRMTKEYIECYEEVQSHQEGHHHHHH” was “soluble”; that for “MEAIDQLVGQWQKDGLSPSQVAEKFSKCVLYVTCEPCIMCASALSFLGIKEVYYGCPNDKFGGCGSILSLHLGSEEAQRGKGYKCRGGIMAEEAVSLFKCFYEQGNPNAPKPHRPVVQRERT” was “soluble”; that for “MGSDKIHHHHHHMRKDISTNDKDINDLFLKVVDLVTQARERVATAINIAEVFTKFHIGQYIVEYEQKGETRAEYGKAVLKELSKRLTDRLGDGWSYSTLKNIRQFYIVFSKGLTSGCPKSSQKANQWLADYSKAEEHISEPTFALSWSHYLILMRVENPDARSFYEIECTQQQWSKRQLSRQVGSCLYERLALSRNKDEVMRLAKEGQTIGKPSDIIKNPITLEFLGLKPDAVYSESKLENAIINKMQQFLLELGKGFLFEARQKRFTFDEQHFFVDLVFYNRLLQCYVLIDLKIDKLTHQDLGQMQMYVNYYDRYVKQDFEKPTIGILLCKEKNDALVELTLPKDANIYASAYQLYLPNKALLQAKVKEWIEEFEENEELKKLEENE” was “not soluble”.

For the sequence “MSGGGVIRGPAGNNDCRIYVGNLPPDIRTKDIEDVFYKYGAIRDIDLKNRRGGPPFAFVEFEDPRDAEDAVYGRDGYDYDGYRLRVEFPRSGRGTG”, the “soluble on expression in E. coli” value is reported as “soluble”. The value for “SNQEKLAKLQAQVRIGGKGTARRKKKVVHRTATADDKKLQSSLKKLAVNNIAGIEEVNMIKDDGTVIHFNNPKVQASLSANTFAITGHAEAKPITEMLPGILSQLGADSLTSLRKLAEQFPRQVLDSKAPKPEDIDEEDDDVPDLVENFDEASKNEAN” was “soluble”; that for “LNLSGLSLSCEYQPFVCPHTKHIHGYEALARFYLGQGQAIAPNLVFEQLHENSNALAAVEFQAKTFQLKHAPARQSLFVNVDPHAANGVHTQKLLDLLSSHPQLTVEIIENTCISDAELANQLFHQFKTANLNVALDDIGAPHSMLSVDLMMNVDYLKFDRHWLNLVAEPHGIALLSALIEFGKRTGKQCILEGIETEAQLQLARELNVDLVQGFLFKP” was “not soluble”.

With “MQVINLKYPVALSQIPEGPIVLALGFFDGVHRGHQQVVATARQAAQAQHAKLAVMTFDQHPSVVFKHTDPQQVRYLTTIDQKTALMSELGVDILYVLHFDATVGAMPPQTFVDQLIVGLHAQTVVAGFDYTYGPAEIANMQRLNDYGHNRFEIIEVPKAELDAEKISSTRIRRALDAGDIDTANRLLGYQYETAGEVVHGEARGRTLGFPTANVAHGPNTRVPGIGIYATMVQIGTRWVMGMASVGRNVTFGDHRPITVEIYLLDFRGDLYGHNLTVRWGHRMRGEIKFAGADALVAQLKRDEQNTRDYYVAHPFVVAPRIQVAQQSNRLEAQ”, the “soluble on expression in E. coli” value was “not soluble”. The value for “SSGRSVRAETRSRAKDDIKKVMAAIEKVRKWEKKWVTVGDTSLRIFKWVPVTDSKEKEKSKSNSSAAREPNGFPSDASANSSLLLEFQDENSNQSSVSDVYQLKVDSSTNSSPSPQQSESLSPAHTSDFRTDDSQPPTLGQEILEEPSLPSSEVADEPPTLTKEEPVPLETQVVEEEEDSGAPPLKRFCVDQPTVPQTASES” was “soluble”; that for “VIVAGARTPIGKLMGSLKDFSASELGAIAIKGALEKANVPASLVEYVIMGQVLTAGAGQMPARQAAVAAGIGWDVPALTINKMCLSGIDAIALADQLIRAREFDVVVAGGQESMTKAPHLLMNSRSGYKYGDVTVLDHMAYDGLHDVFTDQPMGALTEQRNDVDMFTRSEQDEYAAASHQKAAAAWKDGVFADEVIPVNIPQRTGDPLQFTEDEGIRANTTAAALAGLKPAFRGDGTITAGSASQISDGAAAVVVMNQEKAQELGLTWLAEIGAHGVVAGPDSTLQSQPANAINKALDREGISVDQLDVVEINEAFAAVALASIRELGLNPQIVNVNGGAIAVGHPLGMSGTRITLHAALQLARRGSGVGVAALCGAGGQGDALILRAG” was “not soluble”; that for “MADYYGLFTSDTRSVSDGESDGERRLRRSRRKRGGGRFRPYSPDYSDDEKTKPTKKNQKRPDKQDRFGMAPPNSTQFLLEDREARADAEFENEQKFEAAERRRVRTMSGSYEHMRPAYWCTIEPATTTADFGSDDNNDLDSTSGESEADREMEREFETDYLEVKRERIQSMTRSQLAAELLERDQDTQVLTRELGSKETENRHLRSLLSAHGISPDEPVTSTTAIVVGQSKSPVVAN” was “not soluble”. The value for “SLTTLKTMTRVQLGAMGEALAVDYLTSMGLRILNRNWRCRYGELDVIACDAATRTVVFVEVKTRTGDGYGGLAHAVTERKVRRLRRLAGLWLADQEERWAAVRIDVIGVRVGPKNSGRTPELTHLQGIG” was “soluble”. The entry for “MPEQAQTRRVFLFLQGPHGPFFHALGRMLRAAGAEVWRVGFNAGDRAFWFHPPSFIPYKGAHEDWPQAFADLLERKGVTDIVLYGDTRPIHASAVAAAKARGLGVHVFEEGYLRPYWVTYEREGSNGNSRLMDMTLEEMRAALALSDLETPLPPSHWGDMRQHIFYGALYHWFVMFTNQGYRRFKPHRDLPVTKEFQLYLQRLLLMPALAVERMLATARIRNGGFPYHLALLQLEHDSSFQQHSPFSTMTDFLEEIFDGFARGAPQHHHLVVKAHPLENGRVPLRREVRRLARQHGLEGRVHYVRGGKLAQLLNDARSAVTVNSTAGQQVLWRGIPLKVFGRAVYDKPEFVSTQTASEFFAAANRPDARAYKEYRRYLLETSQLPGGFYSRKGRRQLLRQVVDMMLSPDDPYDALKSGKAAPRQQLRLVN” is “not soluble”; for “MSLSNNTINIALIGYGFVGKTFHAPLIRSVPGLNLAFVASRDEEKVKRDLPDVTVIASPEAAVQHPDVDLVVIASPNATHAPLARLALNAGKHVVVDKPFTLDMQEARELIALAEEKQRLLSVFHNRRWDSDYLGIRQVIEQGTLGAVKHFESHFDRFRPEVRVRWREQNVPGSGLWFDLGPHLIDQALQLFGLPQSVQGNIATLRDGAEINDWAHVVLNYPAHKVILHCSMLVAGGSSRFTVHGDKGSVIKARADQQESQLLAGVVPGSADWGQDDDPLVIYDASLQAHAQATPQGDQRQYYMLIRDALKGQIANPVPPVEALAVMAVLEAAVRSAESGMVQTLDLSDDERNTLREGHHHHHH” it is “soluble”.
